The target in this series is T1, VvWRKY5-HIS (Vitis vinifera, UniProt A0ABY9BGE3 8-330).
T1 sequence: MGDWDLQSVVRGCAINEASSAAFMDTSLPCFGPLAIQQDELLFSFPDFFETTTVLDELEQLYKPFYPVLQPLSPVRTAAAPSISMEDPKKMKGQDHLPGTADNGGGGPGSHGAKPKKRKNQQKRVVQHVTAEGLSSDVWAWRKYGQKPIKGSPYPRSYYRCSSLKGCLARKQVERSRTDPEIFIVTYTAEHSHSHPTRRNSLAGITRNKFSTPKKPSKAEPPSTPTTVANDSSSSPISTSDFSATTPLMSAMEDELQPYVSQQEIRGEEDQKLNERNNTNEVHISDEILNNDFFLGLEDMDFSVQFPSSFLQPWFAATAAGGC
The series can be described thus: EMSA; unlabeled cold probe competitor 100x/200x; LightShift Chemiluminescent EMSA Kit (Beyotime); buffer, salt, pH and temperature not stated. To be noted: protein: recombinant; tags: His (pET-32a(+) fusion); blunt. In general terms: Mobility shift assays separate free from complexed probe on a gel.

B1: VvMYC2 W-box probe (dsDNA)
DNA 1: TAGGGTGGGGATTTGACCTGGGTCTGGAGATTCG
DNA 2: CGAATCTCCAGACCCAGGTCAAATCCCCACCCTA
B1: the binding result is listed as “binds”.

B2: VvJAZ2 W-box probe (dsDNA)
DNA 1: TAAATCCTCACATCGGGTCAAGGATCGAGTATGC
DNA 2: GCATACTCGATCCTTGACCCGATGTGAGGATTTA
Regarding B2, the binding result is on record as “binds”.

(Values after article PMC10569242, “VvWRKY5 enhances white rot resistance in grape by promoting the jasmonic acid pathway”.)
